According to the supplement of paper PMC9170038:

How the values were obtained:
MS2 coat protein [1] = assay: apparent KD of MS2 coat protein, switch ON state; designed switch direction (-1 OFF switch, 1 ON switch): -1; higher = weaker reporter binding; conditions: FMN input: 0 or 200 uM; Eterna round: R93 (includes R88 designs)
In short: (§1)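 For every design, apparent KD is the median of normalised binding-curve fits from its clusters. The RNA switches were transcribed on-chip from Illumina sequencing clusters and titrated with SNAP-549-labelled MS2 coat protein (twofold steps, 0.7 or 1.5 nM to 3 µM; 0.8–1.5 h to 10–20 min per step). Titrations used 100 mM Tris-HCl pH 7.5, 80 mM KCl, 4 mM MgCl2, without or with constant ligand.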

MS2 coat protein [2] = assay: apparent KD of MS2 coat protein, switch OFF state (with FMN for OFF switches, without FMN for ON switches); designed switch direction (-1 OFF switch, 1 ON switch): -1; higher = weaker reporter binding; conditions: FMN input: 0 or 200 uM; Eterna round: R93 (includes R88 designs)
In short: as §1

MS2 coat protein [3] = assay: apparent KD of MS2 coat protein; designed switch direction (-1 OFF switch, 1 ON switch): 1; higher = weaker reporter binding
In short: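 SNAP-549-labelled MS2 coat protein was titrated, doubling from 0.7 or 1.5 nM to 3 µM, over designed RNA switches transcribed on Illumina chips by stalled E. coli RNA polymerase. Runs were done without input, with 200 uM small-molecule ligand, or with an oligonucleotide input. Apparent KD is the per-design median over clusters of curve-fitted normalised fluorescence.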

[4] = input ligand: microRNA oligo, concentration not stated
[5] = Eterna round: R95, input ligand: FMN 200 uM
[6] = Eterna round: R95, input ligand: microRNA oligo, concentration not stated
[7] = Eterna round: R95, input ligand: none

| Sequence | apparent KD of MS2 coat protein (MS2 coat protein [1]) [nM] | apparent KD of MS2 coat protein (MS2 coat protein [2]) [nM] | apparent KD of MS2 coat protein (MS2 coat protein [3]; input ligand: FMN 200 uM) [nM] | apparent KD of MS2 coat protein (MS2 coat protein [3]; [4]) [nM] | apparent KD of MS2 coat protein (MS2 coat protein [3]; input ligand: none) [nM] | further results |
| --- | --- | --- | --- | --- | --- | --- |
| AAAAAAAAAGGAUAUAAAACAGAGGAUAUACAUAAAUAAAAACAUGAGGAUCACCCAUGUAGAAGGCUGAAAAA [Meechl Ex2 R2 m0] | 18.7 | 22.2 |  |  |  |  |
| AAAAAAAGAGGAUAUACGUGAAAAAUAAAAAUGUAAAAACCACAUGAGGAUCACCCAUGUAGAAGGCUUAAAAA [Ecx-I 62% 2] | 26.4 | 22.8 |  |  |  |  |
| AAAAAACAUGAGGAUCACCCAUGUAAGGAUAUCGAAAAGAAAAGAAAAGAAAGAAGAACGAGAAGGUACAAGAA [Neferirkare Kakai] | 16.6 | 16 |  |  |  |  |
| AAAAAACAUGAGGAUCACCCAUGUAAGGAUAUCGGAAAAGGAAAAAAAAAAAAUAAGACGAGAAGGUACACCAA [Mat - Exclusion 1 - Eli mod - D79] | 23.3 | 31.2 |  |  |  |  |
| AAAAAACAUGAGGAUCACCCAUGUAAGGAUAUGCAAGAAAGAAGAAAGAAAAGAAAAAGCAGAAGGUACAAAAA [Amethyst 71] | 32.1 | 34.4 |  |  |  |  |
| AAAAAACAUGAGGAUCACCCAUGUAAGGAUAUGCGAAAUAAAAGAAAUAAAAAGGAAAGCAGAAGGUACAUGAA [JL wbt mod 8] | 27.2 | 84.4 |  |  |  |  |
| AAAAAACAUGAGGAUCACCCAUGUAAGGAUAUGCUAGGAAAAAGAAAAAUAAAAACUAGCAGAAGGUAUAUGAA [JL wbt mod 12] | 24.5 | 27.4 |  |  |  |  |
| AAAAAACAUGAGGAUCACCCAUGUAAGGAUAUGUAAAAUAAAAGAAAAAUAAAGAAAAGCAGAAGGUACAUGUA [JL wbt mod 16] | 40.4 | 44.5 |  |  |  |  |
| AAAAAACAUGAGGAUCACCCAUGUCAGGAUAUCGUGCAGAAAAAAAAAAAAAACUGCACGAGAAGGGACAUGAA [Mod of jnicol] | 42 | 94.9 |  |  |  |  |
| AAAAAACAUGAGGAUCACCCAUGUCAGGAUAUCUGUAAAAAUUAAAAAAAUAAAAUACAGAGAAGGGACAUAAA [Ex1: 606] | 44 | 100 |  |  |  |  |
| AAAAAACAUGAGGAUCACCCAUGUGAGGAUAUCGAAAAGUUAAAGAAAAAGACGAAAAUGAGAAGGCGCAAAAA [Fiskers Exclusion D1] | 26.3 | 23.9 |  |  |  |  |
| AAAAAACAUGAGGAUCACCCAUGUGAGGAUAUGAAAAAACAAAAAAAAAAGUAAUCAAUCAGAAGGCACAACAA [JR_Exc--1_Sub1210] | 27.4 | 28.9 |  |  |  |  |
| AAAAAACAUGAGGAUCACCCAUGUGAGGAUAUGCAAAACCCAUAUAAAAAGAGAAAAAGCAGAAGGCACAAAAA [wbt round 1 mod] | 25.8 | 40.4 |  |  |  |  |
| AAAAAACAUGAGGAUCACCCAUGUGAGGAUAUGCAUAAAAAAAAAAAAAAAAAAAAAUGCAGAAGGCACAUAAA [jn_bayonne] | 40.1 | 78.5 |  |  |  |  |
| UUGAAGAAUUAAGGAUAUUGAAUACAUAUGUUUAACAUGAGGAUCACCCAUGUGGGUUGCGGUAUCGAGAAGGUAAAUUACUAG [JL SSNG2 1.49] (Eterna round: R96, puzzle: Same State NG 2) |  |  | 112 | 76.3 | 119 |  |
| UUGAAGAAUUAAGGAUAUUGAGUACAUAUGUAAAACAUGAGGAUCACCCAUGUGGGUUGCGGUAUCGAGAAGGUAAAUUAAUAG [Mat - same State NG 2 - JL mod - D70] (Eterna round: R96, puzzle: Same State NG 2) |  |  | 87 | 67.6 | 96.3 |  |
| UUGAAGAAUUAAGGAUAUUGAUUACAUAUGUUUAACAUGAGGAUCACCCAUGUGGGUUGCGGUAUCGAGAAGGUAAAAUAAUAG [Mat - same State NG 2 - JL mod - D82] (Eterna round: R96, puzzle: Same State NG 2) |  |  | 181 | 231 | 258 |  |

| Sequence | apparent KD of MS2 coat protein (MS2 coat protein [1]) [nM] | apparent KD of MS2 coat protein (MS2 coat protein [2]) [nM] | apparent KD of MS2 coat protein (MS2 coat protein [3]; input ligand: FMN 200 uM) [nM] | apparent KD of MS2 coat protein (MS2 coat protein [3]; [4]) [nM] | apparent KD of MS2 coat protein (MS2 coat protein [3]; input ligand: none) [nM] | further results |
| --- | --- | --- | --- | --- | --- | --- |
| UUGAUGUACUGAGGAUAUCGUGUCGUCUGUUUUUACAUGAGGAUCACCCAUGUGGGUUGUGGUAUCGAGAAGGCAGUUUUCUUA [JR_SSNG2_Sub030] (Eterna round: R96, puzzle: Same State NG 2) |  |  | 306 | 560 | 582 |  |
| UUGCUCGUGUGAGGAUAUGCAGCCGUUUCGGCUGCAGAAGGUACUAUAAUACAUGAGGAUCACCCAUGUCUCUGUUGUUUCGUG [salish99_SSNG1_r04_931] (Eterna round: R96, puzzle: Same State NG 1) |  |  | 27.3 | 21 | 27.5 |  |
| UUGCUCGUGUGAGGAUAUGCAGCCGUUUCGGCUGCAGAAGGUACUAUAAUACAUGAGGAUCACCCAUGUCUCUGUUGUUUGGUG [salish99_SSNG1_r04_930] (Eterna round: R96, puzzle: Same State NG 1) |  |  | 69.7 | 49.4 | 63.7 |  |
| UUGCUCGUGUGAGGAUAUGCAGCCGUUUCGGCUGCAGAAGGUACUAUAAUACAUGAGGAUCACCCAUGUCUCUGUUGUUUUGUG [salish99_SSNG1_r04_929] (Eterna round: R96, puzzle: Same State NG 1) |  |  | 26.9 | 20.8 | 25.4 |  |
| UUGCUCGUGUGAGGAUAUGCCGCCGUUUCGGCUGCAGAAGGUACUCUUUUACAUGAGGAUCACCCAUGUCUCUGUUGUUUCGUG [salish99_SSNG1_r04_937] (Eterna round: R96, puzzle: Same State NG 1) |  |  | 252 | 96.4 | 148 |  |
| UUGGGUUUGCGAGGAUAUCGUUUGUGAUUUGAUCGAGAAGGCGCUAUUUAAAUUAUUUUAACAUUACAUGAGGAUCACCCAUGU [JR_SSNG1_Sub022] (Eterna round: R96, puzzle: Same State NG 1) |  |  |  | 14.8 |  |  |
| UUGGUGUAGAUACAGGAUAUGUUGCUUGUUACAUGAGGAUCACCCAUGUAUCUAUGAGAUUAAAUGCAGAAGGGUGCACAUCACU [salish99_ss2_r3_091] (puzzle: Same State 2) |  |  |  |  |  | apparent KD of MS2 coat protein (MS2 coat protein [3]; [5]): 52.9 nM; apparent KD of MS2 coat protein (MS2 coat protein [3]; [6]): 124 nM; apparent KD of MS2 coat protein (MS2 coat protein [3]; [7]): 169 nM |
| UUGUUUUGAAAUUAACAUGAGGAUCACCCAUGUCUUGACACAGAGGAUAUACAUGAAUGUAGGUAGUAGAAGGCUGUUUAGUGU [JR_SSNG3_Sub098] (Eterna round: R96, puzzle: Same State NG 3) |  |  |  | 57.2 |  |  |
| UUGUUUUGUAAUUAACAUGAGGAUCACCCAUGUCUUGGCUCAGAGGAUAUACAUGUUUGAUUGUAGUAGAAGGCUGAAUGUUGU [JR_SSNG3_Sub094] (Eterna round: R96, puzzle: Same State NG 3) |  |  | 95.2 | 96 | 131 |  |
| UUUAGGAGUCAAGGAUAUGCUACCGUUUCGGUAGCAGAAGGUGAUCACAUGAGGAUCACCCAUGUAUGCAUGCGUGAGCGUGCU [JL SSNG1 3.62] (Eterna round: R96, puzzle: Same State NG 1) |  |  |  | 24.1 |  |  |
| UUUAGUUGCGGGCAGGAUAUGUAUUAAAAUACAUGAGGAUCACCCAUGUGGGACCGAAAAGGUCUACAGAAGGGCCAAUCGCGAC [Laonerce - 21] (puzzle: Same State 2) |  |  |  |  |  | apparent KD of MS2 coat protein (MS2 coat protein [3]; [5]): 17.1 nM; apparent KD of MS2 coat protein (MS2 coat protein [3]; [6]): 53.3 nM; apparent KD of MS2 coat protein (MS2 coat protein [3]; [7]): 77.1 nM |
| UUUAUAUUCAGAGGAUAUUAAAGUAGUAUAACAUAAGAAGGCUGUUUGUUUUGUAAAGUAAUUCUACAUGAGGAUCACCCAUGU [JR_SSNG1_Sub085] (Eterna round: R96, puzzle: Same State NG 1) |  |  |  | 15.8 |  |  |
| UUUAUUAAUGCAGGAUAUGAUUAACAUGAGGAUCACCCAUGUGGUGUUGUGAGUAAGGAGAGUGAUCAGAAGGGCAUUUUUUUU [JMF's solution 39] (Eterna round: R96, puzzle: Same State NG 2) |  |  | 524 | 430 | 402 |  |
| UUUAUUUAUGCAGGAUAUGAUUAACAUGAGGAUCACCCAUGUGGUGUUGUGAGUAAGGAGAGUGAUCAGAAGGGCAUUUUUUUU [JMF's solution 76] (Eterna round: R96, puzzle: Same State NG 2) |  |  | 610 | 396 | 487 |  |
| UUUGGGUGGCUGGAGGAUAUCCUUGUUGUUACAUGAGGAUCACCCAUGUGCCGCGCGGUUCGCGAGGAGAAGGCUGGCGGCCGUU (puzzle: Same State 2) |  |  |  |  |  | apparent KD of MS2 coat protein (MS2 coat protein [3]; [6]): 169 nM |
| UUUUCGAACCGAGGAUAUCCUUAUAAGAAACAUGAGGAUCACCCAUGUAAAGGGAAUUAUUUGUAGGAGAAGGCGGAUUUUGUU [JR_SSNG2_Sub054] (Eterna round: R96, puzzle: Same State NG 2) |  |  |  | 33.9 |  |  |
| UUUUUUUUUUAGAGACAAGCUUUUUGAUCACAUGAGGAUCACCCAUGUCUCGUCUUAUUUUUUUUUUUUUUUUUUUU [BA Sensor hsa-mir-208a - 2 - 4] (puzzle: Sensor for hsa-mir-208a) |  |  |  |  |  | apparent KD of MS2 coat protein (MS2 coat protein [3]; [5]): 37.3 nM; apparent KD of MS2 coat protein (MS2 coat protein [3]; [6]): 17.5 nM; apparent KD of MS2 coat protein (MS2 coat protein [3]; [7]): 103 nM |
